Columns and labels:
[1] = molecular target: T1, GST-FL (glutathione-S-transferase fused full length testin) (Homo sapiens (Human), UniProt Q9UGI8-1); experiment: GST pull-down with western blot
T1 chain: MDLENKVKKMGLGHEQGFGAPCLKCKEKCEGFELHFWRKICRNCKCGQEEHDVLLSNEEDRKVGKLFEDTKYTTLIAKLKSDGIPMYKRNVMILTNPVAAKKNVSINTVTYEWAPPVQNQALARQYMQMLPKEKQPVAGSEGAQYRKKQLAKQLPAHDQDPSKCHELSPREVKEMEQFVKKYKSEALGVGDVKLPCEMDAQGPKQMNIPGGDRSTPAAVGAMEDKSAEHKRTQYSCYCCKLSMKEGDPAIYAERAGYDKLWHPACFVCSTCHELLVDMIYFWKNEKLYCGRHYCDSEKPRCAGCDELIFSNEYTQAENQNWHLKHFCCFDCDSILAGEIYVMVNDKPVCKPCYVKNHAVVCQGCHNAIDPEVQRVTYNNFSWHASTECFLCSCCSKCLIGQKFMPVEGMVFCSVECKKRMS

[2] = molecular target: T2, untagged PET^52-233 of testin (amino acids 52-233) (human, UniProt Q9UGI8-1 52-233); experiment: supernatans depletion assay; GST-LIM1-3 on glutathione-sepharose beads at 0.31-50 μM incubated with 2.5 μM PET^52-233 in buffer A, 1 hour at 4°C; unbound PET^52-233 quantified on Coomassie gels; fit 'one site saturation + nonspecific'; details: both partners purified
T2 construct: pGEX-2TK; source: E. coli BL21(DE3) pLYSstar, purified on glutathione sepharose as GST fusion, GST removed with thrombin
T2 sequence (looked up): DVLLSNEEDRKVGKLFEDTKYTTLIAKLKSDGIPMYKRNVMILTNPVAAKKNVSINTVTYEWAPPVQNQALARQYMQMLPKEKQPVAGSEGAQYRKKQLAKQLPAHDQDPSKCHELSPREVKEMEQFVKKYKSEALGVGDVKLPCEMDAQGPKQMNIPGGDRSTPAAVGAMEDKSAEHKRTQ

[3] = molecular target: the molecule itself; experiment: SEC; untagged FL (1.5 mg or as specified) on calibrated Superdex 200 HR 10/30, buffer A, 0.8 ml/min; dimer and monomer fractions re-run; monomer-dimer equilibrium

B1: ena/VASP-like protein (Evl), soluble untagged (protein)
chain: MSEQSICQARASVMVYDDTSKKWVPIKPGQQGFSRINIYHNTASNTFRVVGVKLQDQQVVINYSIVKGLKYNQATPTFHQWRDARQVYGLNFASKEEATTFSNAMLFALNIMNSQEGGPSSQRQVQNGPSPDEMDIQRRQVMEQHQQQRQESLERRTSATGPILPPGHPSSAASAPVSCSGPPPPPPPPVPPPPTGATPPPPPPLPAGGAQGSSHDESSMSGLAAAIAGAKLRRVQRPEDASGGSSPSGTSKSDANRASSGGGGGGLMEEMNKLLAKRRKAASQSDKPAEKKEDESQMEDPSTSPSPGTRAASQPPNSSEAGRKPWERSNSVEKPVSSILSRTPSVAKSPEAKSPLQSQPHSRMKPAGSVNDMALDAFDLDRMKQEILEEVVRELHKVKEEIIDAIRQELSGISTT
[1]
  binding result: binds

B2: GST-LIM1-3 of testin (domain or fragment)
chain: YSCYCCKLSMKEGDPAIYAERAGYDKLWHPACFVCSTCHELLVDMIYFWKNEKLYCGRHYCDSEKPRCAGCDELIFSNEYTQAENQNWHLKHFCCFDCDSILAGEIYVMVNDKPVCKPCYVKNHAVVCQGCHNAIDPEVQRVTYNNFSWHASTECFLCSCCSKCLIGQKFMPVEGMVFCSVECKKRMS
modifications: zinc-bound LIM domains; exact start is only in Fig 1A, so limits are taken from the UniProt LIM1 start (234, adjacent to PET 52-233) to the C-terminus (421); GST omitted
[2]
  Kd: 180 nM

B3: untagged recombinant full length (FL) testin (natural protein, human, UniProt Q9UGI8-1 1-421, looked up)
chain: MDLENKVKKMGLGHEQGFGAPCLKCKEKCEGFELHFWRKICRNCKCGQEEHDVLLSNEEDRKVGKLFEDTKYTTLIAKLKSDGIPMYKRNVMILTNPVAAKKNVSINTVTYEWAPPVQNQALARQYMQMLPKEKQPVAGSEGAQYRKKQLAKQLPAHDQDPSKCHELSPREVKEMEQFVKKYKSEALGVGDVKLPCEMDAQGPKQMNIPGGDRSTPAAVGAMEDKSAEHKRTQYSCYCCKLSMKEGDPAIYAERAGYDKLWHPACFVCSTCHELLVDMIYFWKNEKLYCGRHYCDSEKPRCAGCDELIFSNEYTQAENQNWHLKHFCCFDCDSILAGEIYVMVNDKPVCKPCYVKNHAVVCQGCHNAIDPEVQRVTYNNFSWHASTECFLCSCCSKCLIGQKFMPVEGMVFCSVECKKRMS
notes: testin, human, full length protein (residues 1-421), isoform 1 NP_056456.1; From pGEX-2TK; thrombin site between GST and FL; By SEC it is in a monomer-dimer equilibrium; also called non-tagged recombinant FL; source: E. coli BL21(DE3) pLYSstar, purified on glutathione sepharose as GST-FL, GST removed with thrombin
[3]
  stoichiometry N: 2
